Source: publication PMC8253144 (mAbs, 2021)

B1: anti-EPHA2 Fab A2-3 (Fab, V domains shown)
VH: EVQLVESGGGLVQPGGSLRLSCAASGFNISYYYMHWVRQAPGKGLEWVASIYPSYSYTSYADSVKGRFTISADTSKNTAYLQMNSLRAEDTAVYYCARGGVVSWAHPAASYYVYGAMDYWGQGTLVTVSS
VL: DIQMTQSPSSLSASVGDRVTITCRASQSVSSAVAWYQQKPGKAPKLLIYSASSLYSGVPSRFSGSRSGTDFTLTISSLQPEDFATYYCQQAVWSGYPITFGQGTKVEIK
B2: anti-EPHA2 Fab A2-4 (Fab, V domains shown)
VH: EVQLVESGGGLVQPGGSLRLSCAASGFNISSYYMHWVRQAPGKGLEWVASISPSYSYTYYADSVKGRFTISADTSKNTAYLQMNSLRAEDTAVYYCARGWSFVGMDYWGQGTLVTVSS
VL: DIQMTQSPSSLSASVGDRVTITCRASQSVSSAVAWYQQKPGKAPKLLIYSASSLYSGVPSRFSGSRSGTDFTLTISSLQPEDFATYYCQQGAPWSPITFGQGTKVEIK

Biological target: recombinant human EPHA2 ectodomain (Homo sapiens, UniProt P29317)
Assay: BLI

recombinant human EPHA2 ectodomain, sequence (P29317 24-537): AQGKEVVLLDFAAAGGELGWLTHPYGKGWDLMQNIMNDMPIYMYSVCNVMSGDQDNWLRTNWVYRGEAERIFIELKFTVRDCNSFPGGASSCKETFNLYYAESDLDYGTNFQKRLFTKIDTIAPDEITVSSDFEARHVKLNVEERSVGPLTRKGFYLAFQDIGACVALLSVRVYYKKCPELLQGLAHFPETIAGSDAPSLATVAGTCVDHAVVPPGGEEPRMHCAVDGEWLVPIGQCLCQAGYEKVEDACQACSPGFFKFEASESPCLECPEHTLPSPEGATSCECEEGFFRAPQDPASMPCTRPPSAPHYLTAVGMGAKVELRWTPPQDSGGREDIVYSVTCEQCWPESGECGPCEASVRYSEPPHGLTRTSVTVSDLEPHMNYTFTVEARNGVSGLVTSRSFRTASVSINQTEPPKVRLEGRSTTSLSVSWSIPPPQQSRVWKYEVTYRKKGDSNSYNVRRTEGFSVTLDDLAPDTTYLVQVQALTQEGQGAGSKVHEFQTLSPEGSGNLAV

Binder	binding result
B1	binds
B2	binds
